{"source": "paper PMC13284460", "about": "“HPV16 E2 protein possesses intrinsic helicase activity and sterically hinders E1 function through direct interaction”", "key": {"[1]": {"target": "T1, HPV16 E2 (Human papillomavirus type 16, UniProt P03120 1-365)", "T1 sequence (P03120 whole entry)": "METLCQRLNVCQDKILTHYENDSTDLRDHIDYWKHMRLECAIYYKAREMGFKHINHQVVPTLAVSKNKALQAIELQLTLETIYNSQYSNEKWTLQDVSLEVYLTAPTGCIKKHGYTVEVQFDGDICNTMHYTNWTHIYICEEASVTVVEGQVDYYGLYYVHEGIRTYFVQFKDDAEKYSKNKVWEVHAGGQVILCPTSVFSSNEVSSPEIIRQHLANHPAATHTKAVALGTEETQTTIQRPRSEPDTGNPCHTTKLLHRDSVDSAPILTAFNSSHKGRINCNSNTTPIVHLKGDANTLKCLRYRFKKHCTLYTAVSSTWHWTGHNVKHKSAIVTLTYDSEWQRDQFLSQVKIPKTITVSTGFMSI", "experiment": "fluorescence polarization; 5 mM Mg2+; separate experiment alongside E1; FP: 20 mM Tris-HCl pH 7.0, 10 mM NaCl, 0.1 mg/ml BSA, 5 mM MgCl2, 1 mM DTT, room temperature, 60 min; 50 nM probe, 0-200 nM protein", "details": "protein: recombinant; tags: His (pET28a, Ni-NTA); HA (blots); chain copies: 2; label: 5' Cy3; single strand"}, "[2]": {"target": "T1, HPV16 E2", "experiment": "fluorescence polarization; 5 mM Mg2+; FP: 20 mM Tris-HCl pH 7.0, 10 mM NaCl, 0.1 mg/ml BSA, 5 mM MgCl2, 1 mM DTT, room temperature, 60 min; 50 nM probe, 0-200 nM protein", "details": "protein: recombinant; tags: His (pET28a, Ni-NTA); HA (blots); chain copies: 2; label: 5' Cy3; single strand"}, "[3]": {"target": "T2, HPV16 E1 (Human papillomavirus type 16, UniProt P03114 1-649)", "T2 sequence": "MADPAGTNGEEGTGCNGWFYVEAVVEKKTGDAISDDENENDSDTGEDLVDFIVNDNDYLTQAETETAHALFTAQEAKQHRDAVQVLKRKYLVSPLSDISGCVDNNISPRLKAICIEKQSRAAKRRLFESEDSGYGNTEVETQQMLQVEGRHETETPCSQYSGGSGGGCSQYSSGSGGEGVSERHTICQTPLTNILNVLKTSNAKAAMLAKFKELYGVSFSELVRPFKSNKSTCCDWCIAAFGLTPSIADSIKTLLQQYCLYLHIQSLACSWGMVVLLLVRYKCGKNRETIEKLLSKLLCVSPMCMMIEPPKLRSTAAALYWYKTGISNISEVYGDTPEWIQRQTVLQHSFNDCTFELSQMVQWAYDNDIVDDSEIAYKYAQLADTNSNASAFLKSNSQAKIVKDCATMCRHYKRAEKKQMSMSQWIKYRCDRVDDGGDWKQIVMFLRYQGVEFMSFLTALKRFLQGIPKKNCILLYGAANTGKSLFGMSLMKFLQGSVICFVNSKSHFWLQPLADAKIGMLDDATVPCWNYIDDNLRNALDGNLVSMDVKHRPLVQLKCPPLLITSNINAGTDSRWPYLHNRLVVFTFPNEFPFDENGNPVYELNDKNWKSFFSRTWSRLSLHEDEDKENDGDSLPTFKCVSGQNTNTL", "experiment": "fluorescence polarization; 5 mM Mg2+; FP: 20 mM Tris-HCl pH 7.0, 10 mM NaCl, 0.1 mg/ml BSA, 5 mM MgCl2, 1 mM DTT, room temperature, 60 min; 50 nM probe, 0-200 nM protein", "details": "protein: recombinant; tags: His (pET28a, Ni-NTA); Myc (co-IP); chain copies: 6; label: 5' Cy3; single strand"}}, "data": [{"binder": "GCGTCTTTACGGGTGCTTAAAAACAAAAACAAAAACAAAA (ssDNA)", "note": "[Cy3-labeled 40-nt ssDNA (FP probe)]", "values": [{"measurement": "Kd", "setting": "[1]", "value": "28 ± 10", "unit": "nM"}, {"measurement": "Kd", "setting": "[2]", "value": "24 ± 8", "unit": "nM"}, {"measurement": "Kd", "setting": "[3]", "value": "172 ± 88", "unit": "nM"}]}]}
